Experimental data reported in PMC9570017, “Unorthodox PCNA Binding by Chromatin Assembly Factor 1” (International Journal of Molecular Sciences, 2022).
Substitutions are numbered along the chain they refer to. Numbers in names are those of the source. Entries after “also recorded” stand apart in the source; their conditions may differ.

B1: wild-type CAF-1 p150: full-length mouse CAF-1 p150 expressed in rabbit reticulocyte lysate (protein)
chain: MLEEPEAATRTAAAVDCKDRPGFPVKRLIQARLPFKRLNLVPKEKVEEDTSPKAAVESKVPDLQLSLGTFESQCHTGSHVGLSTKLVGGQGPIDSFLRATIKPVPSVVIIDLTENCSDIPDSPEGHSELSPDTAGVVTTVEGAAKQQEHSAAELCLLETPSDITCHMEEEPGSPGDPKRTGDCQAGSLQSCPELTPGSRTCPTKELSSWSKAGDLLFIEKVPVVVLEDILATKPSIASLPMMSLDRSVTSESEILESCPEDDSILSHSSTNSSSPTSSPEGPSTPPEHRGGRSSPSTPACRVAKNFVKGSTEKGRSKLHRDREQQREEKEKLREEIRRAKEEARKKKEEEKELKEKERREKREKDEKEKAEKQRLKEEKRKERQEALEAKLEEKRKKEEEKRLREEEKRLREEEKRIKAEKAEITRFFQKPKTPQAPKTLAGSCGKFAPFEIKEHMVLAPRCRAALDQDLCDQLDQLLQQQSVASTFLSDLKSRLPLRSGPTRVCGHDTDIMNRDVVIVESSKVDGVSERKKFGRMKLLQFSENHRPAYWGTWNKKTAIIRPRNPWAQDKDLLDYEVDSDDEWEEEEPGESLSHSEGDEDDDVGEDEDEDDGFFVPHGYLSEDEGVTEECADPENHKVHQKLKAKEWDELLAKGKRFRVLQPVHVGCVWASEAANCTSSDLKLLQQFTACLLDVASPDEPEPGASRREKRDQHILAQLLPLLHGNVNGSKVIIHEFQEQCRRGLLTLPSPTPHLQMPNLEDAVAVPSKARLKRLISENSAYEKRPNFRMCWYVHPEVLKSFGQECLPVPCQWTYITTMPSAPREDSGSASTEGPGQSTPMLLKRKPAATMCITQFMKKRRYDGQVGSGDMDGFQADTEEDEEDDTDCMIIDVPDVGSDVSEAPIPAPTLCK
modifications: [35S]-methionine labelled
B2: R426D mutant: full-length mouse CAF-1 p150 with R426D, expressed in rabbit reticulocyte lysate (protein)
chain: B1 chain with R426D
modifications: [35S]-methionine labelled

Assays:
[1] = test system: PCNA; assay: Crystal model of p150 PIP bound to PCNA; assay type: binding, human; details: synthetic 20-amino acid peptide, crystals at pH 5, resolution 46.2–2.4 Å; only RFF residues modelled; model could not be refined further
Procedure: In order to better understand the molecular basis of CAF-1 binding to PCNA, we determined the crystal model of a complex between a synthetic peptide encompassing the p150 PIP and PCNA. The crystal model was solved using molecular replacement from a previously published PCNA structure (Table 1 and Materials and Methods). PCNA samples were incubated with a 20-amino acid PIP derived from CAF-1 p150. The PIP used for crystallization, […] (PIP residues in italics), spanned the entire PIP region.
A CAF-1 p150 synthetic peptide with the sequence […] was synthesized at the University of Cambridge in-house protein and nucleic acid facility (PNAC). For use in crystallization trials, the synthetic peptide was dissolved in demineralized water to a concentration of 23 mM. Initial crystallization conditions were further refined and optimized with the help of the PACT suite (Qiagen) and Additive Screen (Hampton Research), which contain multiple reagent libraries that enhance the solubility and crystallization of biological macromolecules. […]
The eluate was subsequently purified with a Superdex™ 200 gel filtration column (GE Healthcare) in gel filtration buffer 20 mM Tris pH 7.5, 150 mM NaCl, 1 mM DTT. The fractions corresponding to PCNA homotrimer were pooled, concentrated with an amicon concentrator with 3 kDa MWCO, quantified using absorbance at A280 nm, and stored at - […]

[2] = test system: DNA replication-coupled nucleosome assembly (S100 extract from human HEK-293 cells); assay: Replication-dependent nucleosome assembly assay (SV40 DNA replication, S100 extract); assay type: biochemical; details: increasing amounts of in vitro translated p150 (rCAF-1: positive control), 45 min + 45 min at 37 °C, autoradiography
Source text: We next sought to compare the activities of CAF-1 p150, wild-type, and the R426D mutant in a replication-coupled chromatin assembly assay. As a first step to performing this assay, we expressed CAF-1 p150 wild-type and the R426D mutant in a rabbit reticulocyte lysate coupled transcription and translation system and labelled the proteins with [^35S]-methionine. […] In the replication coupled chromatin assembly system, an S100 extract from cultured human HEK-293 cells provides all the cellular DNA replication enzymes and histones but lacks CAF-1 p150 [37]. To this extract, a plasmid containing an SV40 origin of replication and the viral replication protein, SV40 large T antigen, were added to support SV40 DNA replication. Radiolabeled dATP was also added to visualize the replication products by autoradiography.
In contrast, when the recombinant CAF1 protein (p150, p60, p48) or the p150 subunit alone are added, they bind to histones in the S100 extract and promote nucleosome assembly coupled with DNA replication. DNA topoisomerase enzyme I, which is present in the S100 extract (and further supplemented in these assays to ensure sufficient levels), removes the positive supercoiling in the linker DNA that connects nucleosomes, leaving negative supercoiling due to DNA wrapping around histone octamers (evident upon subsequent removal of the histones and electrophoresis).
Replication reactions were assembled as previously reported. […]
The reactions were extracted using phenol, chloroform, and isoamyl alcohol (25:24:1) and the DNA was then precipitated with sodium acetate and ethanol. […] The products of replication were analyzed using a native 1.25% agarose gel in 1X TAE buffer with 1 mM MgCl2, without the addition of ethidium bromide. […] The gel was subsequently imaged and analyzed using a phosphor imager (Typhoon FLA 7000) to visualize the replicated DNA.

| Molecule | binding mode to PCNA in crystal model [1] | supercoiling of replicated DNA / nucleosome assembly [2] | supercoiling of replicated DNA / nucleosome assembly ([2]; listed as CAF-1 R426D mutant) |
| --- | --- | --- | --- |
| IKAEKAEITRFFQKPKTPQA [CAF-1 p150 PIP] | one CAF-1 p150 PIP bound to each PCNA monomer; also recorded: forms a cation-π interaction with Tyr 250 of PCNA | – | – |
| B1 | – | the replication products were supercoiled | – |
| B2 | – | much less supercoiling was observed | deficient in nucleosome assembly |
